Data taken from patent publication US20140186371A1 (published 2014).

Experiments:
human iC3b [1] = target: T1, human iC3b (human, UniProt P01024 23-667; P01024 749-1303; P01024 1321-1663); experiment: sandwich ELISA: chicken anti-C3 capture antibody on the plate, iC3b captured, A209 as detecting antibody, goat anti-mouse-HRP, ABTS
T1 construct: Bought purified protein; three chains held together by disulfide bonds; also called purified human iC3b (Complement Technology #A115)

human iC3b [2] = target: T1, human iC3b; experiment: Biacore (SPR); reference C3b
human iC3b [3] = target: T1, human iC3b; experiment: sandwich ELISA; reference C3b
human iC3b [4] = target: T1, human iC3b; experiment: sandwich ELISA, antigen captured by chicken anti-C3 antibody
human iC3b [5] = target: T1, human iC3b; experiment: Biacore, antibody captured on anti-mouse CM5 chip
human C3 = target: T2, human C3 (human, UniProt P01024 23-667; P01024 672-1663); experiment: Biacore, antibody captured on anti-mouse CM5 chip, antigen in solution
T2 construct: Bought purified protein; also called C3 (Complement Technology #A113)

human iC3b [6] = target: T1, human iC3b; experiment: as above

T1 sequence (P01024 23-667 limits assumed, chain 1 of 3): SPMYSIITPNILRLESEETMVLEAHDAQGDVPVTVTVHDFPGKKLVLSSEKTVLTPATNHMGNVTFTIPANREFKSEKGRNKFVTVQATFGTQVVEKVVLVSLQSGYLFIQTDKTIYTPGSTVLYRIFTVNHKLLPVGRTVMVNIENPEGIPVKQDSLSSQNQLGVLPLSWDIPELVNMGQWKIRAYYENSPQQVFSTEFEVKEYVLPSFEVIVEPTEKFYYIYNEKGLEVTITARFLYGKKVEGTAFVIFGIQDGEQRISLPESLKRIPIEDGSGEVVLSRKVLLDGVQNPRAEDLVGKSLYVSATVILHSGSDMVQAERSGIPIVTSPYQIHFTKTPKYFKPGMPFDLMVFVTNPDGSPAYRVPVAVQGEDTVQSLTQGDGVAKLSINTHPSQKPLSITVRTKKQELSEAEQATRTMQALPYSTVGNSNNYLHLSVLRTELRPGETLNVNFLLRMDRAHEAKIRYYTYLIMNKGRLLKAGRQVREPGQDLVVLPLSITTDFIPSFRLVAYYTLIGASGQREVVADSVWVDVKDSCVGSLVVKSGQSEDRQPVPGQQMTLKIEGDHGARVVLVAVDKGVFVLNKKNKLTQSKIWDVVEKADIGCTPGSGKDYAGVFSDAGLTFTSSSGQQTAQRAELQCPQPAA
T1 sequence (P01024 749-1303 limits assumed, chain 2 of 3): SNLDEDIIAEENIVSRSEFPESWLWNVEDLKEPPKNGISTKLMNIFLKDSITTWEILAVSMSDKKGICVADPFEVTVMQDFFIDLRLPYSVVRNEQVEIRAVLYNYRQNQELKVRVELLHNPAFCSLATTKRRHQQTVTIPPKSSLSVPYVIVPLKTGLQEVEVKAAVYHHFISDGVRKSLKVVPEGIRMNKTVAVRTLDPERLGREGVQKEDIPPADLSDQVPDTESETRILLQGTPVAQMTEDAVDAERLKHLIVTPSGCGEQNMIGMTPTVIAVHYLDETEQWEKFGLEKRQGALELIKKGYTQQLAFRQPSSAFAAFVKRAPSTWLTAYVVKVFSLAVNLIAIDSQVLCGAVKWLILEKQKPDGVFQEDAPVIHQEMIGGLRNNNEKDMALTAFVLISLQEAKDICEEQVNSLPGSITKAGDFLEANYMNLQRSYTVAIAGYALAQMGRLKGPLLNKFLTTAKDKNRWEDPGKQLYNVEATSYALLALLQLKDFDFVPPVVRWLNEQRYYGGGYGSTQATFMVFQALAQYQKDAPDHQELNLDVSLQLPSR
T1 sequence (P01024 1321-1663 limits assumed, chain 3 of 3): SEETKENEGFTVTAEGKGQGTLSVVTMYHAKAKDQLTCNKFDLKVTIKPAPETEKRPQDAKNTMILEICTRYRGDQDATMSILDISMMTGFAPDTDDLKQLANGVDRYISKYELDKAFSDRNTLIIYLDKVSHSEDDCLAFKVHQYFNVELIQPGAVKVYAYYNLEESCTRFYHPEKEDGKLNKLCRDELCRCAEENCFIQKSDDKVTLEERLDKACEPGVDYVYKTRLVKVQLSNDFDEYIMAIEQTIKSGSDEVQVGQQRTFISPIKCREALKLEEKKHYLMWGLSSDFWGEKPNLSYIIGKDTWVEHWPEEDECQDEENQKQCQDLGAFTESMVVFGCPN
T2 sequence (P01024 23-667, chain 1 of 2): as the sequence (P01024 23-667 limits assumed, chain 1 of 3) above
T2 sequence (P01024 672-1663, chain 2 of 2): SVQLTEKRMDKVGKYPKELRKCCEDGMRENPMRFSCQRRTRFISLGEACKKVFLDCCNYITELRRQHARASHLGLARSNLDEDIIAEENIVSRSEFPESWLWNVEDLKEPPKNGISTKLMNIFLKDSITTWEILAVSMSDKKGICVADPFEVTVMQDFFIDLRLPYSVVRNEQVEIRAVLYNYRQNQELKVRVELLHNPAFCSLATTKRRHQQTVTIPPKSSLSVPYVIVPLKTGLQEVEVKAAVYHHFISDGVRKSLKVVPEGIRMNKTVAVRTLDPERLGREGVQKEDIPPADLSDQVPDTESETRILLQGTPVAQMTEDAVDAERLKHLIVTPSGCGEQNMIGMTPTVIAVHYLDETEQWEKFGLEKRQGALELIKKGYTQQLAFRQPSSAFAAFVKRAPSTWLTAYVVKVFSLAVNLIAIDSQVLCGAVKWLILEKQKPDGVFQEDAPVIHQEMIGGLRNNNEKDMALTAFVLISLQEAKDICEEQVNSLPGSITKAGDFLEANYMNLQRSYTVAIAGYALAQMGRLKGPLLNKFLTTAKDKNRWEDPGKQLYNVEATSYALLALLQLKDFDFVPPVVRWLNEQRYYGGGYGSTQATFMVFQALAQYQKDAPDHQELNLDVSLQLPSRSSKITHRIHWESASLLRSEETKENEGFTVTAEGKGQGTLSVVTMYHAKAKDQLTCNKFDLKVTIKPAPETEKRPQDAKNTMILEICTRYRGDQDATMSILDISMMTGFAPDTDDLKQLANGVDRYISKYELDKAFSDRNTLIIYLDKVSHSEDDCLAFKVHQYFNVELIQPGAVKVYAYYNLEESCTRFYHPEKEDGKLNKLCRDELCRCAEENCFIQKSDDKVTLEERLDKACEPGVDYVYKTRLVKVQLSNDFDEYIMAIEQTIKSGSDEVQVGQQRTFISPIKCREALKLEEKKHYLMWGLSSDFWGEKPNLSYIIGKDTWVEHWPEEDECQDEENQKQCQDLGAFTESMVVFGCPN

EC50 (read off the curve) (human iC3b [1]) [µg/mL] | fold higher affinity constant for iC3b than C3b (human iC3b [2]) [fold] | fold higher affinity constant for iC3b than C3b (human iC3b [3]) [fold] | fold specificity for iC3b vs. C3 or C3b (human iC3b [4]) [fold] | fold difference in KD, iC3b relative to C3 (human iC3b [5]) [fold] | Kd (human C3) [nM] | Kd (human iC3b [6]) [nM] | Molecule
0.03 | – | – | – | – | – | – | A209 antibody (Quidel)
– | ≥ 10 | ≥ 2 | > 2 | – | – | – | mouse monoclonal antibody 5D2 (antibody, V domains shown) VH: EVQLQQSGPELVKPGASVKISCKASGYTFTDNYYMNWVKQSHGKSLEWIGHIYPNNGVTSYNQKFRGKATLTVDKSSNSAYMELRSLTSEDSALYYCARNKLLSLYWYFDVWGTGTSVTVSS VL: DIQMTQSSSSFSVFLGDRITITCRASVDIYNRLAWFQQKPGNAPRLLISGATSLATGVPSRFSGSGSGKDYTLSITSLQTEDVTIYYCQQYWSTPWTFGGGTKLEIKR
– | ≥ 10 | ≥ 2 | > 2 | > 10 | 2100 | 43.3 | mouse monoclonal antibody 6G1 (antibody, V domains shown) VH: QIQLVQSGPELKKPGETVKISCKASGYTFTNYGMNWVKQAPGKDLKWMGWINTYTGEPRYADEFKGRFAFSLETSASTAYLQINNLKNEDMATYFCAKGGYPHYYSMDYWGQGTSVTVSS VL: DIQMTQSTSSLSASLGDRVTISCRASQDINNYLNWYQQKPDGTIKLLIYYTSKLHSGVPSRFSGSGSGRDYSLTISNLEQEDIATYFCQQGNTLPRTFGGGTKLEIKR
